The text below walks through data of EP4269437A1 (Zhejiang Nanomab Technology Center Co. Ltd., dated 2023).

B1: NB194-P29-z1 (Fc fusion)
heavy: QVQLVESGGGLVQPGGSLRLSCSASGHSFSIYDMGWFRQAADKERESVAVINFGRGTTYYAESVKGRFTISRDNAKNTVYLQMNSLRAEDTAVYSCGIDRRQYGLGIPPLADHWGQGSQVTVSS
notes: not shown: IgG4 constant region of vector pCDNA3.4-IgG4
B2: NB194-P29-z4 (Fc fusion)
heavy: QVQLVESGGGLVQPGGSLRLSCTASGHSFSIYDMGWFRQAADKERESVAVINFGRGTTYYAESVKGRFTISRDNAKNTVYLQMNSLRAEDTAVYSCGIDRRQYGLGIPPLADHWGQGSQVTVSS
notes: as for B1
B3: NB194-P29-z2 (Fc fusion)
heavy: QLQLVESGGGLVQPGGSLRLSCSASGHSFSIYDMGWFRQAADKERESVAVINFGRGTTYYAESVKGRFTISRDNAKNTVYLQMNSLRAEDTAVYSCGIDRRQYGLGIPPLADHWGQGSQVTVSS
notes: as for B1
B4: NB194-P29-z3 (Fc fusion)
heavy: QVQLVESGGGLVQPGGSLTLSCSASGHSFSIYDMGWFRQAADKERESVAVINFGRGTTYYAESVKGRFTISRDNAKNTVYLQMNSLRAEDTAVYSCGIDRRQYGLGIPPLADHWGQGSQVTVSS
notes: as for B1
B5: NB194-P29-z5 (Fc fusion)
heavy: QVQLVESGGGLVQPGGSLRLSCSASGHSFSIYDMGWFRQAPDKERESVAVINFGRGTTYYAESVKGRFTISRDNAKNTVYLQMNSLRAEDTAVYSCGIDRRQYGLGIPPLADHWGQGSQVTVSS
notes: as for B1
B6: NB532 (Fc fusion)
heavy: QVQLVETGGGLVQAGGSLRLSCAASGRTFSSYNMGWFRQAPGKEREFVAAISWSGGSQGYAAAVKDRFTISRDNAKNTVYLQMNSLKAEDTAVYYCAAKYHSGSYYYTSIRPEEYDYWGQGTQVTVSS
notes: as for B1
B7: NB223 (Fc fusion)
heavy: EVQLVESGGGLVQAGGSLRLSCAASGRTFSSYGMGWFRQAPGKEREFVAAVNWSNSSAYYADSVKDRFTISSDNAKSTIYLQMNSLKPEDTAVYYCRPYSDYVTYDPDDYDYWGQGTQVTVSS
notes: as for B1
B8: NB202 (Fc fusion)
heavy: EVQVVESGGGLVQAGGSLRLSCTASGDTRLASAMGWYRQAPGKERELVAAITNSGLTYYADSVEGRFTISRDSAKNTVYLQMNSLKPEDTAVYYCNAGAPPPGGLGYDESDYWGQGTQVTVSS
notes: as for B1
B9: NB215 (Fc fusion)
heavy: EVQVVESGGGLVQAGDSLRLSCAASGGTISGYEMGWFRQAPGKEREFVAGISRNGRSTGYSDSAKDRFTISRDNAKNTVYLQMNSLKPEDTAVYYCAAGLKADYGDSYVDTSTRNYNYWGQGTQVTVSS
notes: as for B1
B10: NB211 (Fc fusion)
heavy: EVQVVETGGGLAQAGGSLRLSCAASGRTFSGYTVGWYRQSPGKEREFVAAISYSGGSTDYADSVKGRFTISRDNANNTVYLQMGSLKAEDTAVYYCNRVIRGTRDPSIYYVMDYWGKGTLVTVSS
notes: as for B1
B11: NB734 (Fc fusion)
heavy: QVQLVETGGGLVQAGGSLRLSCAASGDTILFSAVGWHRQAPGKERELVAAITNSGVTYYADSVKGRFSISRDNAKNTVYLQMNSLKPEDTAVYYCNAGAPPPGEFGYDESDYWGQGTQVTVSS
notes: as for B1
B12: NB171 (Fc fusion)
heavy: QVQLVESGGGLVQAGGSLRLSCAASGRTFSSYAMGWFRQALGKEREWIAGVSMSGRTTYYAAPVKDRFTISRDNAKNTVTLQMNSLKPEDTAVYYCAAGRAQAEIPIMRAQEYDSWGQGTQVTVSS
notes: as for B1
B13: NB222 (Fc fusion)
heavy: QVQLVESGGGLVQAGGSLRLSCAASGGTFSNFNVGWFRQAPGKEREFVAASNWSAGTTHYSDSVKGRFTISRDNAANTAYLQMNSLRPDDTAVYYCNRVIRGTTYPDVYYGMDYWGKGTLVTVSS
notes: as for B1
B14: NB220 (Fc fusion)
heavy: QVQLQESGGGLLQAGDSLRLSCIVSGRTFSSYAIGWFRQAPGKEREFVAGINWSGRSQYYSESVKDRFTVSIDNAKNTVYLQMNSLKPEDTAVYYCAAERHLGVPTVRDDEYDDWGQGTQVTVSS
notes: as for B1
B15: NB147 (Fc fusion)
heavy: EVQVVESGGGVVQAGDSLRLSCVASGRTFSSVAMGWFRQAPGKEREFVAAISRSGGSAGYSDSVKDRSTISRDNAKNTVYLQMNSLKPEDTAVYFCAASELDFCSTLGCYDYWGQGIQVTFSS
notes: as for B1
B16: NB173 (Fc fusion)
heavy: QVQLQESGGGLVQAGGSLRLSCAASGRSFNSYAMGWFRQAPGKEREFVAAISQNGGTQGYAEAVKDRFTISRDNTNKVVALQMNSLKPEDTAAYYCAADGDASDISYAPPRDYEYDYWGQGTQVTVSS
notes: as for B1
B17: NB182-z4 (Fc fusion)
heavy: EVQLVESGGGLVQPGGSLRLSCSASGDTSFISAAGWYRQAPGKERELVSAITNTGITYYPDSVKGRFTISRDNSKNTVYLQMNNLRAEDTAVYYCNAGAPPPGGLGYDESDYWGQGTQVTVSS
notes: format not restated; not shown: IgG4 constant region of vector pCDNA3.4-IgG4
B18: NB182-z5 (Fc fusion)
heavy: EVQLVESGGGLVQPGGSLRLSCSASGDTSFISAAGWYRQAPGKERELVAAITNTGITYYPDSVKGRFTISRDNSKNTVYLQMNSLRAEDTAVYYCNAGAPPPGGLGYDESDYWGQGTLVTVSS
notes: as for B17
B19: NB182-z1 (Fc fusion)
heavy: EVQLVESGGGLVQPGGSLRLSCSASGDTSFISAAGWYRQAPGKERELVSAITNTGITYYPDSVKGRFTISRDNSKNTVYLQMNSLRAEDTAVYYCNAGAPPPGGLGYDESDYWGQGTQVTVSS
notes: as for B17
B20: NB182-z3 (Fc fusion)
heavy: EVQLVESGGGLVQPGGSLRLSCSASGDTSFISAAGWYRQAPGKERELVSAITNTGITYYPDSVKGRFTISRDNSKNTLYLQMNNLRAEDTAVYYCNAGAPPPGGLGYDESDYWGQGTQVTVSS
notes: as for B17
B21: NB182-z2 (Fc fusion)
heavy: EVQLVESGGGLVQPGGSLRLSCSASGDTSFISAAGWYRQAPGKERELVSAITNTGITYYPDSVKGRFTISRDNAKNTVYLQMNSLRAEDTAVYYCNAGAPPPGGLGYDESDYWGQGTQVTVSS
notes: as for B17
B22: NB194-z5 (Fc fusion)
heavy: EVQLVESGGGLVQPGGSLRLSCAASGRPFSIYDMGWFRQAPDKERESVAVINLSRGNTYYADSVKGRFTISRDNAKNTVYLQMNSLRAEDTAVYSCGVDRRQYGLGIPPLADHWGQGTQVTVSS
notes: as for B17
B23: NB194-z2 (Fc fusion)
heavy: EVQLVESGGGLVQPGGSLRLSCAASGRPFSIYDMGWFRQAPDKERESVAVISLSRGNTYYADSVKGRFTISRDSAKNTVYLQMNSLRAEDTAVYSCGVDRRQYGLGIPPLADHWGQGTQVTVSS
notes: as for B17
B24: NB194-z1 (Fc fusion)
heavy: EVQLVESGGGLVQPGGSLRLSCAASGRPFSIYDMGWFRQAPDKERESVAVISLSRGNTYYADSVKGRFTISRDNAKNTVYLQMNSLRAEDTAVYSCGVDRRQYGLGIPPLADHWGQGTQVTVSS
notes: as for B17
B25: NB194-z4 (Fc fusion)
heavy: EVQLVESGGGLVQPGGSLRLSCAASGRPFSIYDMGWFRQAPDKERESVAVINLARGNTYYADSVKGRFTISRDNAKNTVYLQMNSLRAEDTAVYSCGVDRRQYGLGIPPLADHWGQGTQVTVSS
notes: as for B17

T2 sequence (Q15116 25-170 limits assumed): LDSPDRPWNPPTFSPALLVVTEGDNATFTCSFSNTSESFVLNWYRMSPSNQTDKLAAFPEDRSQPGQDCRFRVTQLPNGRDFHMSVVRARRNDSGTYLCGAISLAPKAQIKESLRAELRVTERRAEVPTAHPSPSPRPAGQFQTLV

For one test, the target named is T1, PD-1 (UniProt Q15116 25-170, limits assumed).
T1 construct: also called PD-1 protein
T1 sequence (Q15116 25-170 limits assumed): as above
The test can be described thus: SPR; set-up and antigen form not restated. On the technique in general: In SPR one partner is held on a chip, and binding of the other changes the refractive index at the surface.
Broadly, the Kd is a measure of binding affinity in units of concentration. A low value points to a tighter complex. One may read the koff as a measure of how fast the partners let go of each other. The kon is the rate constant with which the complex forms. A higher kon goes with fast association. In turn, B1 showed a Kd of 0.263 nM, a koff of 3.06e-05 s⁻¹ and a kon of 117000 M⁻¹ s⁻¹.

For B2, the Kd is 0.222 nM, the koff turned out to be 2.61e-05 s⁻¹ and the kon was found to be 117000 M⁻¹ s⁻¹.

In turn, B3 had a Kd of 0.129 nM, a koff of 1.66e-05 s⁻¹ and a kon of 129000 M⁻¹ s⁻¹.

As for B4, the affinity, expressed as Kd, was 0.202 nM; the koff is 3.75e-05 s⁻¹; the kon worked out at 186000 M⁻¹ s⁻¹.

Regarding B5, the Kd turned out to be 0.2 nM, the koff is 2.43e-05 s⁻¹ and the kon turned out to be 121000 M⁻¹ s⁻¹.

Another test has as its target T2, human PD-1.Fc (human, UniProt Q15116 25-170, limits assumed).
T2 construct: also called PD-1; Fc protein; PD-1.hFc; not shown: human IgG Fc fragment
The test can be described thus: SPR, antibody captured on protein A, PD-1.Fc in flow.
Take B6: the Kd was found to be 7.03 nM, the koff came to 0.00092 s⁻¹ and the kon was determined as 131000 M⁻¹ s⁻¹.

The molecule B7 displayed a Kd of 6.39 nM, a koff of 0.000863 s⁻¹ and a kon of 135000 M⁻¹ s⁻¹.

B8 displayed a Kd of 0.328 nM, a koff of 6.77e-05 s⁻¹ and a kon of 206000 M⁻¹ s⁻¹.

On to B9, for which the Kd is 10.4 nM, the dissociation rate constant (koff) worked out at 0.000508 s⁻¹ and the kon turned out to be 49000 M⁻¹ s⁻¹.

Regarding B10, the Kd was found to be 1.33 nM, the koff was 0.003 s⁻¹ and the kon worked out at 2.26e+06 M⁻¹ s⁻¹.

B11 yielded a Kd of 0.292 nM, a koff of 6.88e-05 s⁻¹ and a kon of 236000 M⁻¹ s⁻¹.

In turn, B12 showed a Kd of 6.21 nM, a koff of 0.000309 s⁻¹ and a kon of 49700 M⁻¹ s⁻¹.

B13 showed a Kd of 0.149 nM, a koff of 0.000306 s⁻¹ and a kon of 2.05e+06 M⁻¹ s⁻¹.

As for B14, the Kd was found to be 0.219 nM, the koff came to 0.000323 s⁻¹ and the kon amounted to 1.48e+06 M⁻¹ s⁻¹.

With B15, the Kd is 2.75 nM, the koff came to 0.000153 s⁻¹ and the kon amounted to 55800 M⁻¹ s⁻¹.

B16 registered a Kd of 83.1 nM, a koff of 0.000179 s⁻¹ and a kon of 2150 M⁻¹ s⁻¹.

A further test deals with T3, PD-1.His (UniProt Q15116 25-170, limits assumed).
T3 construct: not shown: His tag
T3 sequence (Q15116 25-170 limits assumed): as above
The test can be described thus: SPR, antibody captured on protein A, PD-1.His in flow.
With B17, the Kd amounted to 15 nM, the koff is 9.73e-05 s⁻¹ and the kon was 6480 M⁻¹ s⁻¹.

Molecule B18 returned a Kd of 14 nM, a koff of 9.07e-05 s⁻¹ and a kon of 6460 M⁻¹ s⁻¹.

B19 showed a Kd of 8.25 nM, a koff of 7.61e-05 s⁻¹ and a kon of 9220 M⁻¹ s⁻¹.

Turning to B20, binding was characterised by a dissociation constant (Kd) of 11.8 nM, the koff came to 7.11e-05 s⁻¹ and the kon came to 6000 M⁻¹ s⁻¹.

For the molecule B21, the affinity, expressed as Kd, was 8.2 nM; the koff is 4.59e-05 s⁻¹; the kon is 5600 M⁻¹ s⁻¹.

Molecule B22 registered a Kd of 0.598 nM, a koff of 7.92e-05 s⁻¹ and a kon of 133000 M⁻¹ s⁻¹.

As to B23, the Kd turned out to be 1.01 nM, the koff came to 9.88e-05 s⁻¹ and the kon amounted to 97600 M⁻¹ s⁻¹.

For the molecule B24, the Kd was 0.837 nM, the koff was 0.000107 s⁻¹ and the kon is 128000 M⁻¹ s⁻¹.

On to B25, for which binding was put at a Kd of 0.586 nM, the koff amounted to 7.79e-05 s⁻¹ and the kon came to 133000 M⁻¹ s⁻¹.
